# Reference: the supplement of paper PMC10065799, “High-throughput profiling of sequence recognition by tyrosine kinases and SH2 domains using bacterial peptide display” (eLife, 2023)
# System: c-Abl (mouse)
# Test: phosphorylation enrichment, bacterial display (enrichment ratio); higher = better substrate or ligand; peptides without Tyr show the background
# 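Further: 11-residue human phosphosite peptides and single-mutation variants displayed on the E. coli surface, counted by deep sequencing, each peptide's frequency after selection divided by its frequency in the unselected input library; frequency after pTyr selection over input frequency; kinase dosed for 20-30% of maximal phosphorylation in three min.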
row,Sequence,phosphorylation enrichment
1,FSKTQYNQVPS [CXADR_Y318_YF],0.892
2,SHISGYAALRR [RAPH1_Y1226_T1228A],0.726
3,ASSPVYVPTTR [GATA6_Y188],0.524
4,RVILRYVNPGN [LAMA3_Y791_T796N],1.61
5,EIELAYRRRPP [GRIN2B_Y1109],0.437
6,DPGVSYHTREE [PDHA1_Y301_R302H],0.399
7,SLIDMYSEVPD [OPA1_Y268_L272P],0.619
8,MGRVKYGAFIN [GLB1_Y485_N484K_YF],0.532
9,REENGYNTFAS [FGF10_Y161_I156R_YF],0.606
10,LFRFGYANTSE [SI_Y1233_C1229Y_YF],0.847
11,VYYYSYLLKNH [PTEN_Y180],2.84
12,VILARYGPAWR [CYP2D6_Y124_F120I],0.603
13,FQKNIYSEELR [LMNA_Y211],1.04
14,RQNNSYTCYTA [SLC20A2_Y386_R382Q],0.582
15,KFDLMYAKCAF [TUBA1A_Y399_R402C],1.06
16,NTGGYYDLYGG [PTPN11_Y63_D61G],0.756
17,LENQTYFKSFE [AKAP9_Y2482],0.872
18,LENSTYQFIRV [CRB1_Y760_YF],1.18
19,SVTCTFSPALN [TP53_Y126_Y126F],1.19
20,ESMLRYDVYGG [STOX1_Y607_E608D],0.529
21,KEAVLYPHLPP [SQSTM1_Y383_A381V],0.798
22,PYSSPYENSLI [EPOR_Y489_N487S],0.902
23,MKSIKYMDKEV [CCDC60_Y41_I46V],0.492
24,LHRAHYDLHHT [AHSG_Y314_R317H],0.781
25,HGEAFYSEVKA [PAK5_Y182_P187A_YF],0.619
26,YFVVEYRNQKP [MUC17_Y4332_D4334N],0.722
27,TAALWYIFSHT [ENG_Y612_YF],1.19
28,EAVSIYQFYGQ [CBLC_Y402_H405Y],4.8
29,PDGHEYIFVDP [PDGFRA_Y572_YF],0.466

# Biological target: EPHB1 (UniProt P54762)
# Sequence (P54762 whole entry, looked up): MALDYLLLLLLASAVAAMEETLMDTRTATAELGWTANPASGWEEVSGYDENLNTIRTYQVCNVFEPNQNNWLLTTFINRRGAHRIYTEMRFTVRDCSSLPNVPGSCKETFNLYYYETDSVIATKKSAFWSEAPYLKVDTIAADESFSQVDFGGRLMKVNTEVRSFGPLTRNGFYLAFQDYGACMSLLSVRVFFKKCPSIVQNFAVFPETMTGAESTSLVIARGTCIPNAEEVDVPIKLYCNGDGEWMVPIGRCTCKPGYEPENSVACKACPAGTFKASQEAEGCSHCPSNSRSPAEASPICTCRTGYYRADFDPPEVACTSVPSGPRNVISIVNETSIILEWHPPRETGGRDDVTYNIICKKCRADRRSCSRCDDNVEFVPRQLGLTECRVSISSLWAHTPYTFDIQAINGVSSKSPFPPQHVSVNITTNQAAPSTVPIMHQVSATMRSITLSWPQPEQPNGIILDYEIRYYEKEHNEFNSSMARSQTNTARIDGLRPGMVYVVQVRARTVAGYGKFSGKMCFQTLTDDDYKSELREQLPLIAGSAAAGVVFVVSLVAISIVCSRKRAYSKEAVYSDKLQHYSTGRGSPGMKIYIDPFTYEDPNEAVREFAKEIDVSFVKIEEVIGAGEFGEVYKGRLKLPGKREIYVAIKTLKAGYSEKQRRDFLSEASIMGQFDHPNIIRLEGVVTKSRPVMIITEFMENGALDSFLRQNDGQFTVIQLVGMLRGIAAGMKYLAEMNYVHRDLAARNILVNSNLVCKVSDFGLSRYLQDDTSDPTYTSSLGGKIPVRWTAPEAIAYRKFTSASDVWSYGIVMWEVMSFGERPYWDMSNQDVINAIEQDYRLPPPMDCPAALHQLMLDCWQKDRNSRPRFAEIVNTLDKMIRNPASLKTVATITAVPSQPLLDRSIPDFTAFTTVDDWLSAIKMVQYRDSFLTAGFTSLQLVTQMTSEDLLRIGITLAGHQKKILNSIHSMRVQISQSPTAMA
# Test: as above
row,Sequence,phosphorylation enrichment
1,FSKTQYNQVPS [CXADR_Y318_YF],0.424
2,SHISGYAALRR [RAPH1_Y1226_T1228A],0.328
3,ASSPVYVPTTR [GATA6_Y188],0.397
4,RVILRYVNPGN [LAMA3_Y791_T796N],0.836
5,EIELAYRRRPP [GRIN2B_Y1109],0.448
6,DPGVSYHTREE [PDHA1_Y301_R302H],0.351
7,SLIDMYSEVPD [OPA1_Y268_L272P],0.48
8,MGRVKYGAFIN [GLB1_Y485_N484K_YF],0.368
9,REENGYNTFAS [FGF10_Y161_I156R_YF],0.617
10,LFRFGYANTSE [SI_Y1233_C1229Y_YF],0.378
11,VYYYSYLLKNH [PTEN_Y180],1.72
12,VILARYGPAWR [CYP2D6_Y124_F120I],0.513
13,FQKNIYSEELR [LMNA_Y211],0.84
14,RQNNSYTCYTA [SLC20A2_Y386_R382Q],0.597
15,KFDLMYAKCAF [TUBA1A_Y399_R402C],0.72
16,NTGGYYDLYGG [PTPN11_Y63_D61G],1.98
17,LENQTYFKSFE [AKAP9_Y2482],1.24
18,LENSTYQFIRV [CRB1_Y760_YF],5.79
19,SVTCTFSPALN [TP53_Y126_Y126F],0.845
20,ESMLRYDVYGG [STOX1_Y607_E608D],0.646
21,KEAVLYPHLPP [SQSTM1_Y383_A381V],0.409
22,PYSSPYENSLI [EPOR_Y489_N487S],0.39
23,MKSIKYMDKEV [CCDC60_Y41_I46V],0.325
24,LHRAHYDLHHT [AHSG_Y314_R317H],0.69
25,HGEAFYSEVKA [PAK5_Y182_P187A_YF],1.26
26,YFVVEYRNQKP [MUC17_Y4332_D4334N],0.931
27,TAALWYIFSHT [ENG_Y612_YF],0.733
28,EAVSIYQFYGQ [CBLC_Y402_H405Y],10.1
29,PDGHEYIFVDP [PDGFRA_Y572_YF],0.644

# Biological target: Jak2 (UniProt O60674)
# Sequence (O60674 whole entry, looked up): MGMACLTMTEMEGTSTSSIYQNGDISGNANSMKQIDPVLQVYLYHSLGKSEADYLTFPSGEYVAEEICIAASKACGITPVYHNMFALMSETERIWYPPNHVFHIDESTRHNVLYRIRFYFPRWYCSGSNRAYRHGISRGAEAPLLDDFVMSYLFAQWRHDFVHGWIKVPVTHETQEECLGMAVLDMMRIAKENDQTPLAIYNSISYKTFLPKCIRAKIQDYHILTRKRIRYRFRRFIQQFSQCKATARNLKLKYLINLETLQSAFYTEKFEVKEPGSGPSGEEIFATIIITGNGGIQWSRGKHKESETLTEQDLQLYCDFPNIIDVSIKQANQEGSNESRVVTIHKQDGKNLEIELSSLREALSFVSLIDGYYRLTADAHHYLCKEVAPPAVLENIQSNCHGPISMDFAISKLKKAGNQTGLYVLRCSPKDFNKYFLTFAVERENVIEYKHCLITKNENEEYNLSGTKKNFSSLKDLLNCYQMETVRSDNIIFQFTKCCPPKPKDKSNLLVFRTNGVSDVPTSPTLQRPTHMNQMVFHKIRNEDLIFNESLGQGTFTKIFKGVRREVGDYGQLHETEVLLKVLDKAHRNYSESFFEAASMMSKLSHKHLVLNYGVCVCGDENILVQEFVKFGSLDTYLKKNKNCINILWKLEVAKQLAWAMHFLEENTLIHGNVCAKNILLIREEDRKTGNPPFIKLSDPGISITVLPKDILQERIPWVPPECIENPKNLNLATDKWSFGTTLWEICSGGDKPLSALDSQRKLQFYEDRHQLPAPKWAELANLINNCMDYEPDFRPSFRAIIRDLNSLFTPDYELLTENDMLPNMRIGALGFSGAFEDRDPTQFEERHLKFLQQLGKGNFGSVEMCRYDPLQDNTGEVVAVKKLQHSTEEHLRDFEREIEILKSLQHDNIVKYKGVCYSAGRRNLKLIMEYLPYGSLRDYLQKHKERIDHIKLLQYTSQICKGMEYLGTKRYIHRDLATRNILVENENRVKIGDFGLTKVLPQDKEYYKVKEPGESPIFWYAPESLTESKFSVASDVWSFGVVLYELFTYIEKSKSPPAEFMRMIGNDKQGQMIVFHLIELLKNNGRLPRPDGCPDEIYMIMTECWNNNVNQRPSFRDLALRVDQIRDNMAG
# Test: as above
row,Sequence,phosphorylation enrichment
1,FSKTQYNQVPS [CXADR_Y318_YF],1.15
2,SHISGYAALRR [RAPH1_Y1226_T1228A],0.561
3,ASSPVYVPTTR [GATA6_Y188],0.44
4,RVILRYVNPGN [LAMA3_Y791_T796N],1.79
5,EIELAYRRRPP [GRIN2B_Y1109],0.556
6,DPGVSYHTREE [PDHA1_Y301_R302H],0.465
7,SLIDMYSEVPD [OPA1_Y268_L272P],1.24
8,MGRVKYGAFIN [GLB1_Y485_N484K_YF],0.528
9,REENGYNTFAS [FGF10_Y161_I156R_YF],0.91
10,LFRFGYANTSE [SI_Y1233_C1229Y_YF],0.807
11,VYYYSYLLKNH [PTEN_Y180],2.14
12,VILARYGPAWR [CYP2D6_Y124_F120I],0.808
13,FQKNIYSEELR [LMNA_Y211],1.04
14,RQNNSYTCYTA [SLC20A2_Y386_R382Q],0.787
15,KFDLMYAKCAF [TUBA1A_Y399_R402C],1.25
16,NTGGYYDLYGG [PTPN11_Y63_D61G],5.82
17,LENQTYFKSFE [AKAP9_Y2482],1.13
18,LENSTYQFIRV [CRB1_Y760_YF],0.946
19,SVTCTFSPALN [TP53_Y126_Y126F],1.74
20,ESMLRYDVYGG [STOX1_Y607_E608D],0.704
21,KEAVLYPHLPP [SQSTM1_Y383_A381V],0.659
22,PYSSPYENSLI [EPOR_Y489_N487S],0.929
23,MKSIKYMDKEV [CCDC60_Y41_I46V],0.567
24,LHRAHYDLHHT [AHSG_Y314_R317H],0.646
25,HGEAFYSEVKA [PAK5_Y182_P187A_YF],0.834
26,YFVVEYRNQKP [MUC17_Y4332_D4334N],2.32
27,TAALWYIFSHT [ENG_Y612_YF],1.36
28,EAVSIYQFYGQ [CBLC_Y402_H405Y],1.22
29,PDGHEYIFVDP [PDGFRA_Y572_YF],0.73

# Biological target: MERTK (UniProt Q12866)
# Sequence (Q12866 whole entry, looked up): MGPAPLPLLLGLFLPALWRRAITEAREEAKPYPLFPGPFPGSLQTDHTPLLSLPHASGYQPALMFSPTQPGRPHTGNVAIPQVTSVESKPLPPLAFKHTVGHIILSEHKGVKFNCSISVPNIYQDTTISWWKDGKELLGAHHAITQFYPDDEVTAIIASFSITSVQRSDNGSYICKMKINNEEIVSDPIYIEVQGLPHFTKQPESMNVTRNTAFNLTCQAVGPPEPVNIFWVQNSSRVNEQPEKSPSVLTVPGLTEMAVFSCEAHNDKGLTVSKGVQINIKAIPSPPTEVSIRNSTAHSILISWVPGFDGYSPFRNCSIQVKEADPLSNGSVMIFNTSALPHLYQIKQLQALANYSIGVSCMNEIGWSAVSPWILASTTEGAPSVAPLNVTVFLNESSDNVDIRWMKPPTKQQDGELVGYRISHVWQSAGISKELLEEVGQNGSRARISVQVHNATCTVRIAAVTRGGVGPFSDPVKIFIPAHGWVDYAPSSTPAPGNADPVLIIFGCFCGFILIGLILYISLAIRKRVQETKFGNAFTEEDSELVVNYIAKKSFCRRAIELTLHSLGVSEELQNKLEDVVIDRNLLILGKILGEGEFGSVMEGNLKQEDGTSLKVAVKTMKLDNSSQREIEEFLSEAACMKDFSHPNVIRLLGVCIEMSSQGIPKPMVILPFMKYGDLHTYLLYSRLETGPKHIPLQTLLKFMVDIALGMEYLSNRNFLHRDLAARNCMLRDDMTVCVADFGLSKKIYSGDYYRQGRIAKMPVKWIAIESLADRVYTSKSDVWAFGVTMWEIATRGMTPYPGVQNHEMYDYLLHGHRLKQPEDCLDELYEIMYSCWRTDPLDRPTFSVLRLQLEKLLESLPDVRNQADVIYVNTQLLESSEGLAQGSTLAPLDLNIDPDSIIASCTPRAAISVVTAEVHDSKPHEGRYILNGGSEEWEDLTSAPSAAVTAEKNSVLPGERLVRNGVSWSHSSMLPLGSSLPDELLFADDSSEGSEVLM
# Test: as above
row,Sequence,phosphorylation enrichment
1,FSKTQYNQVPS [CXADR_Y318_YF],0.697
2,SHISGYAALRR [RAPH1_Y1226_T1228A],0.446
3,ASSPVYVPTTR [GATA6_Y188],0.493
4,RVILRYVNPGN [LAMA3_Y791_T796N],0.709
5,EIELAYRRRPP [GRIN2B_Y1109],0.385
6,DPGVSYHTREE [PDHA1_Y301_R302H],0.405
7,SLIDMYSEVPD [OPA1_Y268_L272P],0.604
8,MGRVKYGAFIN [GLB1_Y485_N484K_YF],0.443
9,REENGYNTFAS [FGF10_Y161_I156R_YF],0.69
10,LFRFGYANTSE [SI_Y1233_C1229Y_YF],0.315
11,VYYYSYLLKNH [PTEN_Y180],3.89
12,VILARYGPAWR [CYP2D6_Y124_F120I],0.482
13,FQKNIYSEELR [LMNA_Y211],5.8
14,RQNNSYTCYTA [SLC20A2_Y386_R382Q],0.476
15,KFDLMYAKCAF [TUBA1A_Y399_R402C],0.624
16,NTGGYYDLYGG [PTPN11_Y63_D61G],7.92
17,LENQTYFKSFE [AKAP9_Y2482],0.81
18,LENSTYQFIRV [CRB1_Y760_YF],4.96
19,SVTCTFSPALN [TP53_Y126_Y126F],0.515
20,ESMLRYDVYGG [STOX1_Y607_E608D],0.918
21,KEAVLYPHLPP [SQSTM1_Y383_A381V],0.422
22,PYSSPYENSLI [EPOR_Y489_N487S],0.683
23,MKSIKYMDKEV [CCDC60_Y41_I46V],0.334
24,LHRAHYDLHHT [AHSG_Y314_R317H],0.496
25,HGEAFYSEVKA [PAK5_Y182_P187A_YF],8.27
26,YFVVEYRNQKP [MUC17_Y4332_D4334N],4.22
27,TAALWYIFSHT [ENG_Y612_YF],0.491
28,EAVSIYQFYGQ [CBLC_Y402_H405Y],9.05
29,PDGHEYIFVDP [PDGFRA_Y572_YF],0.311
